# Values of other authors in publication PMC4664829.
# Where two headings read alike, the source gives them in different places.
# Legend:
# [1] = molecular target: T1, Glu14 (UniProt position 14, GAILAEVIGTT); test: kinetics; conditions: TPP+ association with substrate-free EmrE
# [2] = molecular target: T1, Glu14; conditions: proton release from EmrE
substance,measurement,setting,value
EmrE (small multidrug resistance transporter) (Escherichia coli),pKa,[1],7.3
same,pKa,[2],8.4
